Patent US20120220489A1

What was measured:
[1] = molecular target: Erk1-BSA 2.7x peptide-protein conjugate (human; bovine); assay: RPA, competition: +free Erk1 peptide 1000 nM
[2] = molecular target: pRb recombinant protein, human, Active Motif 31 128 (human) (UniProt P06400); assay: RPA, competition: +free Erk1 peptide 1000 nM
[3] = molecular target: Histone H3 recombinant protein, human, Upstate 14-494 (human) (UniProt P68431); assay: RPA, competition: +free Erk1 peptide 1000 nM
[4] = molecular target: ERK1 (p42) active (phospho), human, Active Motif 31 152 (human) (UniProt P27361); assay: RPA, competition: +free Erk1 peptide 1000 nM
[5] = molecular target: pErk1/2-BSA 2.7x peptide-protein conjugate (human; bovine); assay: RPA, competition: +free Erk1 peptide 1000 nM
Sequence of pErk1/2-BSA 2.7x peptide-protein conjugate (human; bovine) (P02769 25-607 limits assumed): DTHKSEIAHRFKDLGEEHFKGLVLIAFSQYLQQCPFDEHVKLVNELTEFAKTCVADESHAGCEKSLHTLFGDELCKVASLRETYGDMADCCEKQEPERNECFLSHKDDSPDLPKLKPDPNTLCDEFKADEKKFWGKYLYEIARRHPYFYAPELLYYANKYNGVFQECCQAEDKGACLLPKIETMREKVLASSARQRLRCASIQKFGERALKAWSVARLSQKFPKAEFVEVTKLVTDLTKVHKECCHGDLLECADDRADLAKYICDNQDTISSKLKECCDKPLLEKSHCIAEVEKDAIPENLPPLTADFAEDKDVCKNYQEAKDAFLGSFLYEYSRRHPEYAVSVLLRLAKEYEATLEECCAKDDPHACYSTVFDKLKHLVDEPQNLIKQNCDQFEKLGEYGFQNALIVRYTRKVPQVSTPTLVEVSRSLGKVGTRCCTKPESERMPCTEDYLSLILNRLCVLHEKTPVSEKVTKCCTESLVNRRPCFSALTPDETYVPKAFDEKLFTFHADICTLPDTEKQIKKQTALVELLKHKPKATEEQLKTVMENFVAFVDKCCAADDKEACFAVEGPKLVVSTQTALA

[6] = molecular target: ERK2 (p42), human, Biosource PHO 0104 (human) (UniProt P28482); assay: RPA, competition: +free Erk1 peptide 1000 nM
Sequence of UniProt P28482 (P28482 2-360 limits assumed): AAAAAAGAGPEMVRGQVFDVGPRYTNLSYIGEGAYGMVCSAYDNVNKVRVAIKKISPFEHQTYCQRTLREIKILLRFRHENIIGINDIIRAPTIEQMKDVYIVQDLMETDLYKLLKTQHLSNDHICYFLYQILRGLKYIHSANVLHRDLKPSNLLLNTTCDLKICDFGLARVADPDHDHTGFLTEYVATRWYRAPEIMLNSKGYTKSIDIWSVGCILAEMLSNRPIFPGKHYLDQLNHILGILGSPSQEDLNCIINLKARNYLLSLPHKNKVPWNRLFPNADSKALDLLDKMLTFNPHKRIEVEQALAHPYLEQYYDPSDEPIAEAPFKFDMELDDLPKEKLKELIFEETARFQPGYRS

[7] = molecular target: ERK1 (p44) active (GST tagged), human, Invitrogen PV 3311 (human) (UniProt P27361); assay: RPA, competition: +free Erk1 peptide 1000 nM
[8] = molecular target: Histone H3 recombinant protein, calf, Roche 11 034 758 001 (calf) (UniProt P68432); assay: RPA, competition: +free Erk1 peptide 1000 nM
[9] = molecular target: ERK1 (p44) inactive (GST tagged), human, Invitrogen PV 3312 (human) (UniProt P27361); assay: RPA, competition: +free Erk1 peptide 1000 nM
[10] = molecular target: ERK1 (p44), human, Cell Signaling Technology 7416 (human) (UniProt P27361); assay: RPA, competition: +free Erk1 peptide 1000 nM
[11] = molecular target: Histone H3-BSA 2.7x peptide-protein conjugate (bovine); assay: RPA, competition: +free Erk1 peptide 1000 nM
Sequence of Histone H3-BSA 2.7x peptide-protein conjugate (bovine) (P02769 25-607 limits assumed): as the sequence (P02769 25-607 limits assumed) above

[12] = molecular target: pRb-BSA 1x peptide-protein conjugate (bovine); assay: RPA, competition: +free Erk1 peptide 1000 nM
Sequence of pRb-BSA 1x peptide-protein conjugate (bovine) (P02769 25-607 limits assumed): as above

[13] = molecular target: Erk1-BSA 2.7x peptide-protein conjugate (human; bovine); assay: RPA, normal assay
[14] = molecular target: pRb recombinant protein, human, Active Motif 31 128 (human) (UniProt P06400); assay: RPA, normal assay
[15] = molecular target: Histone H3 recombinant protein, human, Upstate 14-494 (human) (UniProt P68431); assay: RPA, normal assay
[16] = molecular target: ERK1 (p42) active (phospho), human, Active Motif 31 152 (human) (UniProt P27361); assay: RPA, normal assay
[17] = molecular target: ERK2 (p42), human, Biosource PHO 0104 (human) (UniProt P28482); assay: RPA, normal assay
[18] = molecular target: ERK1 (p44) active (GST tagged), human, Invitrogen PV 3311 (human) (UniProt P27361); assay: RPA, normal assay
[19] = molecular target: Histone H3 recombinant protein, calf, Roche 11 034 758 001 (calf) (UniProt P68432); assay: RPA, normal assay
[20] = molecular target: ERK1 (p44) inactive (GST tagged), human, Invitrogen PV 3312 (human) (UniProt P27361); assay: RPA, normal assay
[21] = molecular target: ERK1 (p44), human, Cell Signaling Technology 7416 (human) (UniProt P27361); assay: RPA, normal assay
[22] = molecular target: Histone H3-BSA 2.7x peptide-protein conjugate (bovine); assay: RPA, normal assay
[23] = molecular target: pRb-BSA 1x peptide-protein conjugate (bovine); assay: RPA, normal assay
[24] = molecular target: Erk1-BSA 2.7x peptide-protein conjugate (human; bovine); assay: RPA, competition: +recombinant protein 100 nM (not named)
[25] = molecular target: pRb recombinant protein, human, Active Motif 31 128 (human) (UniProt P06400); assay: as above
[26] = molecular target: Histone H3 recombinant protein, human, Upstate 14-494 (human) (UniProt P68431); assay: as above
[27] = molecular target: ERK1 (p42) active (phospho), human, Active Motif 31 152 (human) (UniProt P27361); assay: as above
[28] = molecular target: pErk1/2-BSA 2.7x peptide-protein conjugate (human; bovine); assay: as above
[29] = molecular target: ERK2 (p42), human, Biosource PHO 0104 (human) (UniProt P28482); assay: as above
[30] = molecular target: ERK1 (p44) active (GST tagged), human, Invitrogen PV 3311 (human) (UniProt P27361); assay: as above
[31] = molecular target: Histone H3 recombinant protein, calf, Roche 11 034 758 001 (calf) (UniProt P68432); assay: as above
[32] = molecular target: ERK1 (p44) inactive (GST tagged), human, Invitrogen PV 3312 (human) (UniProt P27361); assay: as above
[33] = molecular target: ERK1 (p44), human, Cell Signaling Technology 7416 (human) (UniProt P27361); assay: as above
[34] = molecular target: Histone H3-BSA 2.7x peptide-protein conjugate (bovine); assay: as above
[35] = molecular target: pRb-BSA 1x peptide-protein conjugate (bovine); assay: as above

Sequence of Erk1-BSA 2.7x peptide-protein conjugate (human; bovine) (peptide, as listed by the source limits assumed, chain 1 of 2): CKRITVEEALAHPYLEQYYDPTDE
Sequence of Erk1-BSA 2.7x peptide-protein conjugate (human; bovine) (P02769 25-607 limits assumed, chain 2 of 2): as the sequence (P02769 25-607 limits assumed) above
Sequence of UniProt P06400 (P06400 whole entry): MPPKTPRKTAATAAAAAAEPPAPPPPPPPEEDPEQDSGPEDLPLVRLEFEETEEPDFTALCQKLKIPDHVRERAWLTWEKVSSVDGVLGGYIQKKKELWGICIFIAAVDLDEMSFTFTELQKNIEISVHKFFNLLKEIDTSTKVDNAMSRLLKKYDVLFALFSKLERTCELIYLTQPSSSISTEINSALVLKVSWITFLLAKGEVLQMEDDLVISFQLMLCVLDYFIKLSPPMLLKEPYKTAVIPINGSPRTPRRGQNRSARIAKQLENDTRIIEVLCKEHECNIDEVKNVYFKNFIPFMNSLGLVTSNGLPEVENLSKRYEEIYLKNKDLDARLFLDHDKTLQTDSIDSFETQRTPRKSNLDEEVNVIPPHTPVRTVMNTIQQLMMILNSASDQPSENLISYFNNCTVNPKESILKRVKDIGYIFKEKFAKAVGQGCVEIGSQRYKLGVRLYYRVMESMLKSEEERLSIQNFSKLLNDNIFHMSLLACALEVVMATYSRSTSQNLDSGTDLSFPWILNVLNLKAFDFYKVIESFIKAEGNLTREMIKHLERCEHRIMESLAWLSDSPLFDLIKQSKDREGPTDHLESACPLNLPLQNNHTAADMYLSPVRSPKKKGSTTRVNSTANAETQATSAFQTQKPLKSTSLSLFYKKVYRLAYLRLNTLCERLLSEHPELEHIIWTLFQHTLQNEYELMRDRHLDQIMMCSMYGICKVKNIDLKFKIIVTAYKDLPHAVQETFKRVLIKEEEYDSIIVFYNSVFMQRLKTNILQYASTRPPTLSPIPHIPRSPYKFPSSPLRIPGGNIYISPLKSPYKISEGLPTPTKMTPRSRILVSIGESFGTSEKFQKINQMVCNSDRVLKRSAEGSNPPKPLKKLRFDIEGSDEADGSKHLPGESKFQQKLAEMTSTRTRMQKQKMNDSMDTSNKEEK

| Substance | maximum standard curve signal [1] [RFI] | maximum standard curve signal [2] [RFI] | maximum standard curve signal [3] [RFI] | maximum standard curve signal [4] [RFI] | maximum standard curve signal [5] [RFI] | maximum standard curve signal [6] [RFI] | maximum standard curve signal [7] [RFI] | maximum standard curve signal [8] [RFI] | maximum standard curve signal [9] [RFI] | maximum standard curve signal [10] [RFI] | maximum standard curve signal [11] [RFI] | maximum standard curve signal [12] [RFI] | maximum standard curve signal [13] [RFI] | maximum standard curve signal [16] [RFI] | maximum standard curve signal [17] [RFI] | maximum standard curve signal [18] [RFI] | maximum standard curve signal [20] [RFI] | maximum standard curve signal [21] [RFI] | maximum standard curve signal [22] [RFI] | maximum standard curve signal [23] [RFI] | other results |
| --- | --- | --- | --- | --- | --- | --- | --- | --- | --- | --- | --- | --- | --- | --- | --- | --- | --- | --- | --- | --- | --- |
| p44/42 MAPK (Erk1/2) antibody, Cell Signaling Technology #4695, rabbit monoclonal | 0.01 | < 0.01 | < 0.01 | < 0.01 | 0.01 | 0.01 | 0.02 | < 0.01 | 0.04 | < 0.01 | 0.01 | 0.01 | 2.77 | 0.22 | 1.51 | 5.17 | 7.12 | 0.04 | 0.01 | 0.01 | maximum standard curve signal [14]: 0.01 RFI; maximum standard curve signal [15]: 0.01 RFI; maximum standard curve signal [19]: 0.01 RFI; maximum standard curve signal [24]: 0.29 RFI; maximum standard curve signal [25]: 0.09 RFI; maximum standard curve signal [26]: 0.1 RFI; maximum standard curve signal [27]: 0.11 RFI; maximum standard curve signal [28]: 0.09 RFI; maximum standard curve signal [29]: 0.16 RFI; maximum standard curve signal [30]: 0.39 RFI; maximum standard curve signal [31]: 0.08 RFI; maximum standard curve signal [32]: 0.59 RFI; maximum standard curve signal [33]: 0.1 RFI; maximum standard curve signal [34]: 0.12 RFI; maximum standard curve signal [35]: 0.1 RFI |
| p44/42 MAPK (Erk1/2) antibody, Cell Signaling Technology #9102, rabbit polyclonal | 0.06 | < 0.01 | < 0.01 | 0.23 | 0.01 | 0.91 | 4.65 | < 0.01 | 7.28 | 0.03 | 0.07 | 0.01 | 2.44 | 0.36 | 1.51 | 7.2 | 8.96 | 0.05 | 0.08 | 0.01 | maximum standard curve signal [24]: 0.12 RFI; maximum standard curve signal [25]: 0.04 RFI; maximum standard curve signal [26]: 0.03 RFI; maximum standard curve signal [27]: 0.03 RFI; maximum standard curve signal [28]: 0.04 RFI; maximum standard curve signal [29]: 0.07 RFI; maximum standard curve signal [30]: 0.11 RFI; maximum standard curve signal [31]: 0.03 RFI; maximum standard curve signal [32]: 0.19 RFI; maximum standard curve signal [33]: 0.03 RFI; maximum standard curve signal [34]: 0.1 RFI; maximum standard curve signal [35]: 0.04 RFI |
